Where two headings read alike, the source gives them in different places. Values belong to the binder of their own block, whether it stands above or below them.
What was measured:
4H483-AA = biological target: T1, 4H483-AA; assay: two-hybrid library CCmax;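 further: natural log of median RNA to DNA barcode read ratio; higher means stronger binding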
T1 chain: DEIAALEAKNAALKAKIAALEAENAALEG

4H63-AA = biological target: T2, 4H63-AA; assay: two-hybrid library CCmax; conditions: mean of both orientations;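 further: natural log of median RNA to DNA barcode read ratio; higher means stronger binding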
T2 chain: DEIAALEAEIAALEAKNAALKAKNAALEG

4H566-AA = biological target: T3, 4H566-AA; assay: two-hybrid library CCmax; conditions: mean of both orientations;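 further: natural log of median RNA to DNA barcode read ratio; higher means stronger binding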
T3 chain: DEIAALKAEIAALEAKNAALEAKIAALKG

4H3606-AA = biological target: T4, 4H3606-AA; assay: two-hybrid library CCmax; conditions: mean of both orientations;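 further: natural log of median RNA to DNA barcode read ratio; higher means stronger binding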
T4 chain: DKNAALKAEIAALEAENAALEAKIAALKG

4H794-AA = biological target: T5, 4H794-AA; assay: two-hybrid library CCmax
T5 chain: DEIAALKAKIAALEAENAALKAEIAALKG

4H906-AA = biological target: T6, 4H906-AA; assay: two-hybrid library CCmax; conditions: mean of both orientations
T6 chain: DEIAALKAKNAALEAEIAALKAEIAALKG

4H3427-AA = biological target: T7, 4H3427-AA; assay: two-hybrid library CCmax; conditions: mean of both orientations
T7 chain: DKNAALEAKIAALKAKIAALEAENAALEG

4H429-AA = biological target: T8, 4H429-AA; assay: two-hybrid library CCmax; conditions: mean of both orientations
T8 chain: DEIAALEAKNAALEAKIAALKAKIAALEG

4H48-AA = biological target: T9, 4H48-AA; assay: two-hybrid library CCmax; conditions: mean of both orientations
T9 chain: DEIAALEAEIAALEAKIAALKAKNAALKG

4H678-AA = biological target: T10, 4H678-AA; assay: two-hybrid library CCmax; conditions: mean of both orientations
T10 chain: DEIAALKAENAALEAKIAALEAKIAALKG

4H780-AA = biological target: T11, 4H780-AA; assay: two-hybrid library CCmax; conditions: mean of both orientations
T11 chain: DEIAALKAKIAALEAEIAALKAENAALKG

4H717-AA = biological target: T12, 4H717-AA; assay: two-hybrid library CCmax; conditions: mean of both orientations
T12 chain: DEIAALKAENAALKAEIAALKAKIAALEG

4H317-AA = biological target: T13, 4H317-AA; assay: two-hybrid library CCmax
T13 chain: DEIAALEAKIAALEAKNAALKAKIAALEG

4H3655-AA = biological target: T14, 4H3655-AA; assay: two-hybrid library CCmax; conditions: mean of both orientations
T14 chain: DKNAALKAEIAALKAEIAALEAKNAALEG

4H454-AA = biological target: T15, 4H454-AA; assay: two-hybrid library CCmax; conditions: mean of both orientations
T15 chain: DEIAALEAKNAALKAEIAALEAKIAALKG

4H3844-AA = biological target: T16, 4H3844-AA; assay: two-hybrid library CCmax; conditions: mean of both orientations
T16 chain: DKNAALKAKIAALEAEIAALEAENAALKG

4H3343-AA = biological target: T17, 4H3343-AA; assay: two-hybrid library CCmax; conditions: mean of both orientations
T17 chain: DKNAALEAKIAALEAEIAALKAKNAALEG

4H605-AA = biological target: T18, 4H605-AA; assay: two-hybrid library CCmax; conditions: mean of both orientations
T18 chain: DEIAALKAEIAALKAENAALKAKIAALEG

4H3627-AA = biological target: T19, 4H3627-AA; assay: two-hybrid library CCmax; conditions: mean of both orientations
T19 chain: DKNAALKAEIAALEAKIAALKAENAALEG

4H335-AA = biological target: T20, 4H335-AA; assay: two-hybrid library CCmax; conditions: mean of both orientations
T20 chain: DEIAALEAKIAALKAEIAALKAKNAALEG

4H881-AA = biological target: T21, 4H881-AA; assay: two-hybrid library CCmax; conditions: mean of both orientations
T21 chain: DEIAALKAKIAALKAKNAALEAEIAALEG

4H3921-AA = biological target: T22, 4H3921-AA; assay: two-hybrid library CCmax; conditions: mean of both orientations
T22 chain: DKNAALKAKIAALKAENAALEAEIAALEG

4H342-AA = biological target: T23, 4H342-AA; assay: two-hybrid library CCmax; conditions: mean of both orientations
T23 chain: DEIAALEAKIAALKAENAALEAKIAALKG

4H993-AA = biological target: T24, 4H993-AA; assay: two-hybrid library CCmax; conditions: mean of both orientations
T24 chain: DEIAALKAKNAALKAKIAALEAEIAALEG

4H850-bN = biological target: T25, 4H850-bN; assay: two-hybrid library CCNG1
T25 chain: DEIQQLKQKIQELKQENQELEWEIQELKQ

4H906-bN = biological target: T26, 4H906-bN; assay: two-hybrid library CCNG1
T26 chain: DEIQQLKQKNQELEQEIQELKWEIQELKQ

APC9291-AA = biological target: T27, APC9291-AA; assay: two-hybrid library CCmax
T27 chain: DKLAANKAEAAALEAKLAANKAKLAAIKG

APC9806-AA = biological target: T28, APC9806-AA; assay: two-hybrid library CCmax; conditions: mean of both orientations
T28 chain: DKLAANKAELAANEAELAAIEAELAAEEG

4H446-AA = biological target: T29, 4H446-AA; assay: two-hybrid library CCmax; conditions: mean of both orientations
T29 chain: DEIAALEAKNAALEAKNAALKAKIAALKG

4H3974-AA = biological target: T30, 4H3974-AA; assay: two-hybrid library CCmax
T30 chain: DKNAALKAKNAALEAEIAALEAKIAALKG

4H432-AA = biological target: T31, 4H432-AA; assay: two-hybrid library CCmax; conditions: mean of both orientations
T31 chain: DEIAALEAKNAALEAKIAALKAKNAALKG

4H2949-AA = biological target: T32, 4H2949-AA; assay: two-hybrid library CCmax
T32 chain: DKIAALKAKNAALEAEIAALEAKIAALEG

4H3112-AA = biological target: T33, 4H3112-AA; assay: two-hybrid library CCmax; conditions: mean of both orientations
T33 chain: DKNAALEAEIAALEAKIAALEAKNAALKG

4H3920-AA = biological target: T34, 4H3920-AA; assay: two-hybrid library CCmax
T34 chain: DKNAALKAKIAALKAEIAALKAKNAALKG

4H497-AA = biological target: T35, 4H497-AA; assay: two-hybrid library CCmax; conditions: mean of both orientations
T35 chain: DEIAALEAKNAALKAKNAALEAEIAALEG

4H971-AA = biological target: T36, 4H971-AA; assay: two-hybrid library CCmax; conditions: mean of both orientations
T36 chain: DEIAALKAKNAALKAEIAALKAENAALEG

4H3939-AA = biological target: T37, 4H3939-AA; assay: two-hybrid library CCmax; conditions: mean of both orientations
T37 chain: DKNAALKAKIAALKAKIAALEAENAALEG

4H675-AA = biological target: T38, 4H675-AA; assay: two-hybrid library CCmax; conditions: mean of both orientations
T38 chain: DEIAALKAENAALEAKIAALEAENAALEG

4H656-AA = biological target: T39, 4H656-AA; assay: two-hybrid library CCmax; conditions: mean of both orientations
T39 chain: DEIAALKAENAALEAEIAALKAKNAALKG

4H428-AA = biological target: T40, 4H428-AA; assay: two-hybrid library CCmax; conditions: mean of both orientations
T40 chain: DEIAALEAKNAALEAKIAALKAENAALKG

4H478-AA = biological target: T41, 4H478-AA; assay: two-hybrid library CCmax; conditions: mean of both orientations
T41 chain: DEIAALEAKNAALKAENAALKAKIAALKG

Binder: DEIAALEAKNAALKAKIAALEAENAALEG [4H483-AA]
interaction score (4H483-AA): -2.02
interaction score (4H63-AA): -1.11

Binder: DEIAALEAKIAALEAKNAALKAKIAALEG [4H317-AA]
interaction score (4H566-AA): 1.74
interaction score (4H3606-AA): 2.23
interaction score (4H794-AA; mean of both orientations): 0.104
interaction score (4H906-AA): 0.51
interaction score (4H3427-AA): 1.23
interaction score (4H429-AA): -0.459
interaction score (4H48-AA): 0.228
interaction score (4H678-AA): 0.755
interaction score (4H780-AA): -1.52
interaction score (4H717-AA): -1.63
interaction score (4H317-AA): 1.28
interaction score (4H3655-AA): -0.949
interaction score (4H454-AA): -1.04
interaction score (4H3844-AA): -0.686
interaction score (4H3343-AA): -1.56
interaction score (4H605-AA): -0.441
interaction score (4H3627-AA): -0.771
interaction score (4H335-AA): -0.361
interaction score (4H881-AA): 1.38
interaction score (4H3921-AA): 1.81
interaction score (4H342-AA): 2.15
interaction score (4H993-AA): -1.11

Binder: DEIQQLKQKIQELKQENQELEWEIQELKQ [4H850-bN]
interaction score (4H850-bN): 0.186
interaction score (4H906-bN): -0.386

Binder: DKIAALKAKNAALEAEIAALEAKIAALEG [4H2949-AA]
interaction score (4H566-AA): -0.649
interaction score (4H3606-AA): -0.156
interaction score (4H794-AA): -1
interaction score (4H906-AA): -1.01
interaction score (4H3427-AA): -0.95
interaction score (4H429-AA): 1.91
interaction score (4H48-AA): -0.564
interaction score (4H678-AA): 1.69
interaction score (4H780-AA): -1.49
interaction score (4H717-AA): -0.385
interaction score (4H2949-AA): 1.3
interaction score (4H317-AA; mean of both orientations): 1.47
interaction score (4H3655-AA): -1.3
interaction score (4H454-AA): 1.98
interaction score (4H3844-AA): -1.79
interaction score (4H3343-AA): -1.48
interaction score (4H605-AA): -0.239
interaction score (4H3627-AA): -1.38
interaction score (4H335-AA): -0.276
interaction score (4H881-AA): 1.71
interaction score (4H3921-AA): 0.152
interaction score (4H3112-AA): -0.654
interaction score (4H342-AA): 0.399
interaction score (4H993-AA): 1.65

Second part, the binder after the results:

interaction score (APC9291-AA): -1.78
interaction score (APC9806-AA): -1.78
Binder: DKLAANKAEAAALEAKLAANKAKLAAIKG [APC9291-AA]

interaction score (4H446-AA): -0.724
interaction score (4H3974-AA): -0.00837
interaction score (4H432-AA): -0.198
interaction score (4H63-AA): -0.932
Binder: DKNAALKAKNAALEAEIAALEAKIAALKG [4H3974-AA]

interaction score (4H3920-AA): -1.57
interaction score (4H497-AA): -1.9
interaction score (4H971-AA): -1.64
interaction score (4H3939-AA): -0.87
interaction score (4H675-AA): -1.22
interaction score (4H656-AA): -1.01
interaction score (4H428-AA): -0.945
interaction score (4H478-AA): -1.71
Binder: DKNAALKAKIAALKAEIAALKAKNAALKG [4H3920-AA]

From PMC10397247
